Values of other authors in article PMC4317059.

Key:
[1] = molecular target: Asp143 (UniProt position 144, GNAGSDLACGV); experiment: kinetics
[2] = molecular target: Glu143 (UniProt position 144, GNAGSELACGV); experiment: kinetics

Row | Substance | pKa [1] | pKa [2]
1 | Cu,Zn superoxide dismutase (SOD1) Arg143Asp mutant (Homo sapiens; R143D) | ca. 6.2 | –
2 | Cu,Zn superoxide dismutase (SOD1) Arg143Glu mutant (Homo sapiens; R143E) | – | ca. 6.2
